From article PMC7568260, “In vitro reconstitution and characterization of pyruvate dehydrogenase and 2‐oxoglutarate dehydrogenase hybrid complex from Corynebacterium glutamicum” (MicrobiologyOpen, 2020)
One block for each molecule: values may come before it.

Tests used:
[1] = target: CgE2-E3 subcomplex (Corynebacterium glutamicum) (UniProt Q8NNJ2)
[2] = target: CgE1p (thiamine diphosphate-dependent pyruvate dehydrogenase, AceE), C-terminal His- and Flag-tagged (Corynebacterium glutamicum) (UniProt Q8NNF6); experiment: SEC; HiLoad 26/600 Superdex 200 pg or Superose 6 10/300 GL column, TESG10N buffer; mixtures incubated on ice for 30 min before the run; masses estimated against size standards; fractions read by SDS-PAGE (CBB) or Western blot
[3] = target: CgE1o (thiamine diphosphate-dependent 2-oxoglutarate dehydrogenase, OdhA), C-terminal His-tagged (Corynebacterium glutamicum) (UniProt Q8NRC3); experiment: as above
purified protein [4] = substrate: CC(=O)C(=O)O; experiment: purified protein; type: biochemical, Corynebacterium glutamicum; conditions: 0.2 mM CoA, 0.3 mM thiamine pyrophosphate, 3 mM L-cysteine, 5 mM MgCl2, 1 mM APAD+ (NAD+ analogue), TES-NaOH pH 7.6, 30 °C, CgE1p 15 μg with CgE2-E3 15 μg
purified protein [5] = substrate: O=C(O)CCC(=O)C(=O)O; experiment: purified protein; type: biochemical, Corynebacterium glutamicum; conditions: 0.2 mM CoA, 0.3 mM thiamine pyrophosphate, 3 mM L-cysteine, 5 mM MgCl2, 1 mM APAD+ (NAD+ analogue), TES-NaOH pH 7.6, 30 °C, CgE1o 20 μg with CgE2-E3 15 μg

PDH activity against the amount of CgE1p (37, 150, 300, 600 pmol) with a fixed amount of CgE2-E3 (18 pmol) [1]: 150 pmol
stoichiometry N [2]: 2
Molecule: CgE1p (thiamine diphosphate-dependent pyruvate dehydrogenase, AceE), C-terminal His- and Flag-tagged (from UniProt Q8NNF6 1-922) (enzyme)

stoichiometry N [3]: 6
Molecule: CgE1o (thiamine diphosphate-dependent 2-oxoglutarate dehydrogenase, OdhA), C-terminal His-tagged (from UniProt Q8NRC3 1-1221) (enzyme)

B1: reconstituted PDH complex (CgE1p with CgE2‐E3) (Corynebacterium glutamicum ATCC 13032) (protein)
chain: MADQAKLGGKPSDDSNFAMIRDGVASYLNDSDPEETNEWMDSLDGLLQESSPERARYLMLRLLERASAKRVSLPPMTSTDYVNTIPTSMEPEFPGDEEMEKRYRRWIRWNAAIMVHRAQRPGIGVGGHISTYAGAAPLYEVGFNHFFRGKDHPGGGDQIFFQGHASPGMYARAFMEGRLSEDDLDGFRQEVSREQGGIPSYPHPHGMKDFWEFPTVSMGLGPMDAIYQARFNRYLENRGIKDTSDQHVWAFLGDGEMDEPESRGLIQQAALNNLDNLTFVVNCNLQRLDGPVRGNTKIIQELESFFRGAGWSVIKVVWGREWDELLEKDQDGALVEIMNNTSDGDYQTFKANDGAYVREHFFGRDPRTAKLVENMTDEEIWKLPRGGHDYRKVYAAYKRALETKDRPTVILAHTIKGYGLGHNFEGRNATHQMKKLTLDDLKLFRDKQGIPITDEQLEKDPYLPPYYHPGEDAPEIKYMKERRAALGGYLPERRENYDPIQVPPLDKLRSVRKGSGKQQIATTMATVRTFKELMRDKGLADRLVPIIPDEARTFGLDSWFPTLKIYNPHGQNYVPVDHDLMLSYREAPEGQILHEGINEAGSVASFIAAGTSYATHGKAMIPLYIFYSMFGFQRTGDSIWAAADQMARGFLLGATAGRTTLTGEGLQHMDGHSPVLASTNEGVETYDPSFAYEIAHLVHRGIDRMYGPGKGEDVIYYITIYNEPTPQPAEPEGLDVEGLHKGIYLYSRGEGTGHEANILASGVGMQWALKAASILEADYGVRANIYSATSWVNLARDGAARNKAQLRNPGADAGEAFVTTQLKQTSGPYVAVSDFSTDLPNQIREWVPGDYTVLGADGFGFSDTRPAARRFFNIDAESIVVAVLNSLAREGKIDVSVAAQAAEKFKLDDPTSVSVDPNAPEE
notes: CgE1p C-terminal His (and Flag) tag, pKH4, 102,826 Da, dimer in solution; CgE2 (70,905 Da, lipoylated) co-expressed with N-terminal His/Flag CgE3 (50,652 Da), pKH13; E. coli BL21-CodonPlus (DE3); tags not cut; gel-filtration purified; with Dihydrolipoamide acetyltransferase component of pyruvate dehydrogenase complex (E2); Dihydrolipoyl dehydrogenase (E3)
Km (purified protein [4]): 3500 ± 200 µM

B2: reconstituted ODH complex (CgE1o with CgE2‐E3) (Corynebacterium glutamicum ATCC 13032) (protein)
chain: SSASTFGQNAWLVDEMFQQFQKDPKSVDKEWRELFEAQGGPNTTPATTEAQPSAPKESAKPAPKAAPAAKAAPRVETKPADKTAPKAKESSVPQQPKLPEPGQTPIRGIFKSIAKNMDISLEIPTATSVRDMPARLMFENRAMVNDQLKRTRGGKISFTHIIGYAMVKAVMAHPDMNNSYDVIDGKPTLIVPEHINLGLAIDLPQKDGSRALVVAAIKETEKMNFSEFLAAYEDIVARSRKGKLTMDDYQGVTVSLTNPGGIGTRHSVPRLTKGQGTIIGVGSMDYPAEFQGASEDRLAELGVGKLVTITSTYDHRVIQGAVSGEFLRTMSRLLTDDSFWDEIFDAMNVPYTPMRWAQDVPNTGVDKNTRVMQLIEAYRSRGHLIADTNPLSWVQPGMPVPDHRDLDIETHNLTIWDLDRTFNVGGFGGKETMTLREVLSRLRAAYTLKVGSEYTHILDRDERTWLQDRLEAGMPKPTQAEQKYILQKLNAAEAFENFLQTKYVGQKRFSLEGAEALIPLMDSAIDTAAGQGLDEVVIGMPHRGRLNVLFNIVGKPLASIFNEFEGQMEQGQIGGSGDVKYHLGSEGQHLQMFGDGEIKVSLTANPSHLEAVNPVMEGIVRAKQDYLDKGVDGKTVVPLLLHGDAAFAGLGIVPETINLAKLRGYDVGGTIHIVVNNQIGFTTTPDSSRSMHYATDYAKAFGCPVFHVNGDDPEAVVWVGQLATEYRRRFGKDVFIDLVCYRLRGHNEADDPSMTQPKMYELITGRETVRAQYTEDLLGRGDLSNEDAEAVVRDFHDQMESVFNEVKEGGKKQAEAQTGITGSQKLPHGLETNISREELLELGQAFANTPEGFNYHPRVAPVAKKRVSSVTEGGIDWAWGELLAFGSLANSGRLVRLAGEDSRRGTFTQRHAVAIDPATAEEFNPLHELAQSKGNNGKFLVYNSALTEYAGMGFEYGYSVGNEDSIVAWEAQFGDFANGAQTIIDEYVSSGEAKWGQTSKLILLLPHGYEGQGPDHSSARIERFLQLCAEGSMTVAQPSTPANHFHLLRRHALSDLKRPLVIFTPKSMLRNKAAASAPEDFTEVTKFQSVINDPNVADAAKVKKVMLVSGKLYYELAKRKEKDGRDDIAIVRIEMLHPIPFNRISEALAGYPNAEEVLFVQDEPANQGPWPFYQEHLPELIPNMPKMRRVSRRAQSSTATGVAKVHQLEEKQLIDEAFEA
notes: CgE1o C-terminal His tag, pAA62, 134,664 Da, mainly hexamer alone; CgE2 (70,905 Da, lipoylated) co-expressed with N-terminal His/Flag CgE3 (50,652 Da), pKH13; E. coli BL21-CodonPlus (DE3); tags not cut; gel-filtration purified; complex about 940 kDa; with Dihydrolipoamide acetyltransferase component of pyruvate dehydrogenase complex (E2); Dihydrolipoyl dehydrogenase (E3)
Km (purified protein [5]): 10 ± 1 µM
